T1: GST::Bru (full-length Bruno fused to GST) (Drosophila, UniProt O02374 1-604)
T1 construct: Bruno (Bru; encoded by the aret gene), Drosophila; full-length bru cDNA subcloned into pGEX-2TK; Vector pGEX-2TK; source: E. coli CodonPlus, extract, immobilized on Glutathione Sepharose 4B
T1 sequence (looked up): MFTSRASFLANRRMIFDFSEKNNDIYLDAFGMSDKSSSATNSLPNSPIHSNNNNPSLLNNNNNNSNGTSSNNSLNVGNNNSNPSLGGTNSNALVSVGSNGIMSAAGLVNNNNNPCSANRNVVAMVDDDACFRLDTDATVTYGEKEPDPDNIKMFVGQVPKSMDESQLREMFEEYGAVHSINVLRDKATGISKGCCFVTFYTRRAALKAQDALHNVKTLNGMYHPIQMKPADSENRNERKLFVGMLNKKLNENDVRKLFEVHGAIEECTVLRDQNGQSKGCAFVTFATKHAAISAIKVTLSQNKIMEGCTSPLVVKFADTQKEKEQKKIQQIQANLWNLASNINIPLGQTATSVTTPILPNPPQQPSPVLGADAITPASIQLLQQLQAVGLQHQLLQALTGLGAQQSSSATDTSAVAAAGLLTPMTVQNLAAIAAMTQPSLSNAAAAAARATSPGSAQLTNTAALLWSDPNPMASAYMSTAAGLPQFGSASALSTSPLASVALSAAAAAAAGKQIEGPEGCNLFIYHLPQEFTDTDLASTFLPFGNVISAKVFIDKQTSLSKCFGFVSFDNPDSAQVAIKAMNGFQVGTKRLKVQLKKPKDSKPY

B1: His6::Bru Δ334–416 (natural protein, Drosophila, UniProt O02374 1-604, looked up)
chain: MFTSRASFLANRRMIFDFSEKNNDIYLDAFGMSDKSSSATNSLPNSPIHSNNNNPSLLNNNNNNSNGTSSNNSLNVGNNNSNPSLGGTNSNALVSVGSNGIMSAAGLVNNNNNPCSANRNVVAMVDDDACFRLDTDATVTYGEKEPDPDNIKMFVGQVPKSMDESQLREMFEEYGAVHSINVLRDKATGISKGCCFVTFYTRRAALKAQDALHNVKTLNGMYHPIQMKPADSENRNERKLFVGMLNKKLNENDVRKLFEVHGAIEECTVLRDQNGQSKGCAFVTFATKHAAISAIKVTLSQNKIMEGCTSPLVVKFADTQKEKEQKKIQQIQAAAGLLTPMTVQNLAAIAAMTQPSLSNAAAAAARATSPGSAQLTNTAALLWSDPNPMASAYMSTAAGLPQFGSASALSTSPLASVALSAAAAAAAGKQIEGPEGCNLFIYHLPQEFTDTDLASTFLPFGNVISAKVFIDKQTSLSKCFGFVSFDNPDSAQVAIKAMNGFQVGTKRLKVQLKKPKDSKPY
notes: also called Bru lacking most of the linker domain between RRMs 2 and 3; source: E. coli, purified (Ni-NTA); not shown: His6, N-terminal, kept
B2: His6::Bru 1–146 (isolated amino-terminal domain) (domain or fragment, Drosophila, UniProt O02374 1-146, looked up)
chain: MFTSRASFLANRRMIFDFSEKNNDIYLDAFGMSDKSSSATNSLPNSPIHSNNNNPSLLNNNNNNSNGTSSNNSLNVGNNNSNPSLGGTNSNALVSVGSNGIMSAAGLVNNNNNPCSANRNVVAMVDDDACFRLDTDATVTYGEKEP
notes: also called Bru amino-terminal domain; source: E. coli, purified (Ni-NTA); not shown: His6, N-terminal, kept
B3: His6::Bru (full-length Bruno, Bru+) (natural protein, Drosophila, UniProt O02374 1-604, looked up)
chain: T1 sequence (looked up)
notes: Bruno (Bru; encoded by the aret gene), Drosophila; full-length Bru in pET-15b; Vector pET-15b; The tethered transgene proteins carry RRM2/RRM3 point mutations; source: E. coli, purified (Ni-NTA); not shown: His6, N-terminal, kept

Biological target: T1, GST::Bru (full-length Bruno fused to …)
Test: pull-down; GST::Bru, GST::Cup or GST immobilized on Glutathione Sepharose 4B from E. coli extract and washed; ~100 ng N-terminally His6-tagged Bru protein in 80 μl binding buffer (50mM Tris-Cl pH7.5, 150mM NaCl, 10% glycerol, 1mM DTT, 0.1% IGEPAL-CA-630), 2–3 hr at room temperature; Western blot with anti-His antibody
Details: both partners purified

Row | binding result | Binder
1 | binds | B1
2 | binds | B2
3 | binds | B3

— publication PMC4344327, “Region-Specific Activation of oskar mRNA Translation by Inhibition of Bruno-Mediated Repression” (PLoS Genetics, 2015)
